Assay [1] has as its target T1, mouse TEM1 extracellular domain (ECD)-Fc fusion protein (mouse, UniProt Q91V98 18-695).
T1 construct: also called mouse TEM1-Fc
T1 sequence: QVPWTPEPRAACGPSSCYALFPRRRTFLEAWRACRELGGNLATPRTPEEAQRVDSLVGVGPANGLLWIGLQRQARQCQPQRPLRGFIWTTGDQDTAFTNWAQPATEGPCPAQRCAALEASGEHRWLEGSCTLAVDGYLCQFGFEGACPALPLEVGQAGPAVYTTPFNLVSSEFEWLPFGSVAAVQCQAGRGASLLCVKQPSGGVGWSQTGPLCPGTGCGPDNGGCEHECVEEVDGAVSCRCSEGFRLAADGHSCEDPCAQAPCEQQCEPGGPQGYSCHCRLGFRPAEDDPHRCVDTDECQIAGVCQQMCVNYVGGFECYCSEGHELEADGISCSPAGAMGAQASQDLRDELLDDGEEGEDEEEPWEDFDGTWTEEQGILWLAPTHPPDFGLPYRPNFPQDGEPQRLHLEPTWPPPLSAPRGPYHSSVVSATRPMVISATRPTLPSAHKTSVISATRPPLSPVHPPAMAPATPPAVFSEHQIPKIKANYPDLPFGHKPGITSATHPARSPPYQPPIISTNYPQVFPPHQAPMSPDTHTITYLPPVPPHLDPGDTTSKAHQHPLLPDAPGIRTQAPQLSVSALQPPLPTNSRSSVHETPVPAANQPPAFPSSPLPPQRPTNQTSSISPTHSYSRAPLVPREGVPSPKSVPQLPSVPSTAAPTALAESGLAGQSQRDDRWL
The assay is described as follows: hybridoma screening ELISA on TEM1-Fc protein, Fc-reactive clones removed by counterscreen. How it is done:
To generate rabbit anti-mouse endosialin (TEM1) antibody clone 8, we immunized two New Zealand white rabbits with four injections of mouse TEM1 extracellular domain (ECD)-Fc fusion protein. Antiserum titer was monitored using standard ELISA (TEM1) and counterscreen ELISA for Fc reactivity. A final IV boost was performed within 4-8 weeks of the last regular injection boost. Splenectomies were performed after the final IV boost. Lymphocytes were isolated from each rabbit spleen. Fusions with 240E-W3 cells (Epitomics) were performed in forty 96-well plates. Standard ELISA screening for 40 plates was performed using TEM1-Fc protein. All positive hybridomas were expanded to 24-well plates and confirmatory standard and differential ELISA were performed. Fc reactive clones were counterscreened and removed, leaving the TEM1-reactive clones. Positive hybridomas were expanded for Ig gene sequencing and generation of purified Ab. One positive hybridoma was assigned the designation clone 8.
On the technique in general: ELISA stands for enzyme-linked immunosorbent assay.

The target of assay [2] is T2, full length human TEM1 (endosialin) with a C-terminal V5-His tag, expressed in A431-TEM1 cells / tumor … (human, UniProt Q9HCU0 18-757).
T2 construct: Target in tissue sections of A431-TEM1 tumor xenografts; also called hTEM1; endosialin/TEM1
T2 sequence: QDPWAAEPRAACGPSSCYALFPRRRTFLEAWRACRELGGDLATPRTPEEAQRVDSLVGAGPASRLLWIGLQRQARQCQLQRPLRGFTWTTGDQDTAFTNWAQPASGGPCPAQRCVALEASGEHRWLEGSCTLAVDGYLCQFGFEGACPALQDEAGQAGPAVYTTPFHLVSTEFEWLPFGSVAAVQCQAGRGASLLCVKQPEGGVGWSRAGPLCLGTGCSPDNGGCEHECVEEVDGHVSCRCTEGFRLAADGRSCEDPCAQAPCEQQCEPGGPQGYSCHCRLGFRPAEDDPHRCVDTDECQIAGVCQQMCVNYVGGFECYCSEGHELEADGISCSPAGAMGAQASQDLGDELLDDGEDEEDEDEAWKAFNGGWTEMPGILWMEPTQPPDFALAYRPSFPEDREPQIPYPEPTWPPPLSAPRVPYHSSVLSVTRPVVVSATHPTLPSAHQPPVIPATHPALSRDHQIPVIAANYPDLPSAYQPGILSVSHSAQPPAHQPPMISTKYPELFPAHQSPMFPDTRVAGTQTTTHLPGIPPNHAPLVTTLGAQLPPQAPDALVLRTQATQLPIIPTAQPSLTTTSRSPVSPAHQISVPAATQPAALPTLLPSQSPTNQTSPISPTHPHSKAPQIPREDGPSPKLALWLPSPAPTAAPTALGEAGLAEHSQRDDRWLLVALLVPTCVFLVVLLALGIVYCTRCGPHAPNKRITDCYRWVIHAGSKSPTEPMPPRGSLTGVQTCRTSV
Nature of the assay: IHC on FFPE A431-TEM1 tumor xenograft sections, biotinylated antibody at 20 µg/ml.

The target in assay [3] is soluble human endosialin extracellular domain-mouse Fc fusion protein (human; mouse). The assay is described as follows: competition ELISA: hTEM1-Fc (15 µg/mL) preincubated with serial dilutions of antibody, binding to fibronectin-coated plate detected with anti-mouse HRP.

Substitutions are numbered along the chain they refer to.

From patent US20100260769A1 (MORPHOTEK, published 2010) come the findings set out here.

For orientation: IC50 means the concentration at which inhibition is half-maximal. A low value points to inhibition by little substance.

B1: rabbit anti-mouse endosialin monoclonal antibody clone 8 (antibody, V domains shown)
VH: AQSVEESGGGLVKPEGSLTLSCKASGFSFSNNSYICWVRQAPGKGLEWIACIEFGRGNSHYASWAKGRFTITRSTSLNTVTLQLNSLTAADTATYFCARGSRGVGYGYGLWGPGTLVTISS
VL: ELDMTQTPSPVSAAVGGTVTINCQASQSVYSNSRLSWYQQKPGQPPKQLIYSASTLASGVPSRFKGSGSGTHFTLTLSGVQCDDAATYYCQGEFACSSADCSAFGGGTELEILK
notes: Rabbit IgG from a hybridoma, kappa light chain; rabbit constant regions are not; also called hybridoma clone 8 (ATCC PTA-9651)
On to B1, for which the binding result in assay [1] is given as “binds”.

B2: rabbit anti-human endosialin monoclonal antibody 1-55-2 (antibody, V domains shown)
VH: QQQLMESGGDLVKPEGSLTLTCTASGFSFSSSYWGCWVRQAPGKGPEWIACIYGGSSGTTYYPNWAKGRFSISKTSSTTVTLQMASLTAADTATYFCARVTNGGDWDFKLWGPGTLVTVSS
VL: ELVMTQTPASVEVAVGGTVTIKCQASQSINTYLAWYQQKPGQPPKLLIYRASTLASGVPSRFKGSGSGTEFTLTISDLECADAATYYCQQSVRVIDVDNTFGGGTEVVVK
notes: Rabbit IgG from a hybridoma, kappa light chain; rabbit constant regions are not; also called hybridoma 1-55-2 (ATCC PTA-9652)
For the molecule B2, in assay [2], the binding result is on record as “binds”. This molecule also came in with an IC50 in assay [3] of 69.5 mg/L.

B3: rabbit anti-human endosialin monoclonal antibody 1-25-2 (antibody, V domains shown)
VH: B2 VH with Q1A, Q3S, M5E, V119I
VL: B2 VL with M4L, S28T, T31N, A34T, S91T, I95V, T100S
Consider B3, for which the IC50 in assay [3] is 41.5 mg/L.

B4: rabbit anti-human endosialin monoclonal antibody 1-3-1 (antibody, V domains shown)
VH: AQSVEESGGDLVRPGASLTLTCSASGFTINRNYWICWVRQAPGRGPEWIACIYGGSSGTTYYTNWAKGRFTISKAASTTVTLQMTSLTVADTATYFCARVDNGGDWYFRLWGPGTLVTISS
VL: ELDLTQTPASVEVAVGGTVTIKCQASQSISSYLAWYQQKPGQPPKLLIYRASTLASGVSSRFKGSGSGTEFTLTISGVQCDDAATYYCQQGVRVVDIDNSFGGGTELVVK
With B4, the IC50 in assay [3] came to 21.4 mg/L. Compared with the last molecule, the IC50 is about 1.9-fold lower.
